Reference: the Human Domainome abundance scans (Beltran et al. 2025)
± gives the uncertainty stated by the source.

B1: CD2-associated protein, residues 1 to 59; numbered along this chain, Q9Y5K6 (parent)
chain: MVDYIVEYDYDAVHDDELTIRVGEIIRNVKKLQEEGWLEGELNGRRGMFPDNFVKEIKR

Variants of: B1
Assay: abundance fitness (aPCA) (normalised: wild type 0, dead -1); higher = more abundant; growth selection in yeast, the domain comes from the species named
Settings: Homo sapiens
MVDYIVEYDYDAVHDDELTIRVGVIIRNVKKLQEEGWLEGELNGRRGMFPDNFVKEIKR [E24V] showed an abundance fitness of -0.94 ± 0.24. In the case of MVDYIVEYDYDAVHDDELTIRVGWIIRNVKKLQEEGWLEGELNGRRGMFPDNFVKEIKR [E24W], the abundance fitness is reported as -0.764 ± 0.18. Variant MVDYIVEYDYDAVHDDELTIRVGEAIRNVKKLQEEGWLEGELNGRRGMFPDNFVKEIKR [I25A] has an abundance fitness of -0.667 ± 0.22. In the case of MVDYIVEYDYDAVHDDELTIRVGECIRNVKKLQEEGWLEGELNGRRGMFPDNFVKEIKR [I25C], the abundance fitness is reported as -0.392 ± 0.23. MVDYIVEYDYDAVHDDELTIRVGEEIRNVKKLQEEGWLEGELNGRRGMFPDNFVKEIKR [I25E] showed an abundance fitness of -0.516 ± 0.47. Work on MVDYIVEYDYDAVHDDELTIRVGEGIRNVKKLQEEGWLEGELNGRRGMFPDNFVKEIKR [I25G] yielded an abundance fitness of -0.718 ± 0.17. For MVDYIVEYDYDAVHDDELTIRVGEHIRNVKKLQEEGWLEGELNGRRGMFPDNFVKEIKR [I25H], the abundance fitness was -0.146 ± 0.26. For MVDYIVEYDYDAVHDDELTIRVGEKIRNVKKLQEEGWLEGELNGRRGMFPDNFVKEIKR [I25K], the abundance fitness was -0.043 ± 0.2. Work on MVDYIVEYDYDAVHDDELTIRVGEMIRNVKKLQEEGWLEGELNGRRGMFPDNFVKEIKR [I25M] yielded an abundance fitness of -0.28 ± 0.15. Work on MVDYIVEYDYDAVHDDELTIRVGEPIRNVKKLQEEGWLEGELNGRRGMFPDNFVKEIKR [I25P] yielded an abundance fitness of -0.845 ± 0.25. MVDYIVEYDYDAVHDDELTIRVGEQIRNVKKLQEEGWLEGELNGRRGMFPDNFVKEIKR [I25Q] gave an abundance fitness of -0.338 ± 0.13. Variant MVDYIVEYDYDAVHDDELTIRVGERIRNVKKLQEEGWLEGELNGRRGMFPDNFVKEIKR [I25R] has an abundance fitness of -0.079 ± 0.071. Work on MVDYIVEYDYDAVHDDELTIRVGESIRNVKKLQEEGWLEGELNGRRGMFPDNFVKEIKR [I25S] yielded an abundance fitness of -0.541 ± 0.14. Work on MVDYIVEYDYDAVHDDELTIRVGETIRNVKKLQEEGWLEGELNGRRGMFPDNFVKEIKR [I25T] yielded an abundance fitness of -0.064 ± 0.12. With MVDYIVEYDYDAVHDDELTIRVGEVIRNVKKLQEEGWLEGELNGRRGMFPDNFVKEIKR [I25V] the abundance fitness was -0.088 ± 0.13. With MVDYIVEYDYDAVHDDELTIRVGEWIRNVKKLQEEGWLEGELNGRRGMFPDNFVKEIKR [I25W] the abundance fitness was -0.519 ± 0.12. MVDYIVEYDYDAVHDDELTIRVGEYIRNVKKLQEEGWLEGELNGRRGMFPDNFVKEIKR [I25Y] gave an abundance fitness of -0.294 ± 0.18. For MVDYIVEYDYDAVHDDELTIRVGEIARNVKKLQEEGWLEGELNGRRGMFPDNFVKEIKR [I26A], the abundance fitness was -0.636 ± 0.32. In the case of MVDYIVEYDYDAVHDDELTIRVGEICRNVKKLQEEGWLEGELNGRRGMFPDNFVKEIKR [I26C], the abundance fitness is reported as -0.517 ± 0.13. Work on MVDYIVEYDYDAVHDDELTIRVGEIGRNVKKLQEEGWLEGELNGRRGMFPDNFVKEIKR [I26G] yielded an abundance fitness of -0.926 ± 0.26. MVDYIVEYDYDAVHDDELTIRVGEILRNVKKLQEEGWLEGELNGRRGMFPDNFVKEIKR [I26L] showed an abundance fitness of -0.107 ± 0.085. MVDYIVEYDYDAVHDDELTIRVGEINRNVKKLQEEGWLEGELNGRRGMFPDNFVKEIKR [I26N] showed an abundance fitness of -0.988 ± 0.33. MVDYIVEYDYDAVHDDELTIRVGEIRRNVKKLQEEGWLEGELNGRRGMFPDNFVKEIKR [I26R] showed an abundance fitness of -0.894 ± 0.17. In the case of MVDYIVEYDYDAVHDDELTIRVGEISRNVKKLQEEGWLEGELNGRRGMFPDNFVKEIKR [I26S], the abundance fitness is reported as -0.79 ± 0.29. MVDYIVEYDYDAVHDDELTIRVGEIVRNVKKLQEEGWLEGELNGRRGMFPDNFVKEIKR [I26V] showed an abundance fitness of -0.177 ± 0.13. Variant MVDYIVEYDYDAVHDDELTIRVGEIWRNVKKLQEEGWLEGELNGRRGMFPDNFVKEIKR [I26W] has an abundance fitness of -0.743 ± 0.23. MVDYIVEYDYDAVHDDELTIRVGEIIANVKKLQEEGWLEGELNGRRGMFPDNFVKEIKR [R27A] showed an abundance fitness of -0.228 ± 0.079. For MVDYIVEYDYDAVHDDELTIRVGEIICNVKKLQEEGWLEGELNGRRGMFPDNFVKEIKR [R27C], the abundance fitness was -0.038 ± 0.065. Variant MVDYIVEYDYDAVHDDELTIRVGEIIDNVKKLQEEGWLEGELNGRRGMFPDNFVKEIKR [R27D] has an abundance fitness of -0.838 ± 0.18. MVDYIVEYDYDAVHDDELTIRVGEIIENVKKLQEEGWLEGELNGRRGMFPDNFVKEIKR [R27E] showed an abundance fitness of -0.081 ± 0.2. Variant MVDYIVEYDYDAVHDDELTIRVGEIIFNVKKLQEEGWLEGELNGRRGMFPDNFVKEIKR [R27F] has an abundance fitness of -0.195 ± 0.057. In the case of MVDYIVEYDYDAVHDDELTIRVGEIIGNVKKLQEEGWLEGELNGRRGMFPDNFVKEIKR [R27G], the abundance fitness is reported as -0.148 ± 0.092. MVDYIVEYDYDAVHDDELTIRVGEIIHNVKKLQEEGWLEGELNGRRGMFPDNFVKEIKR [R27H] showed an abundance fitness of 0.059 ± 0.069. Work on MVDYIVEYDYDAVHDDELTIRVGEIIINVKKLQEEGWLEGELNGRRGMFPDNFVKEIKR [R27I] yielded an abundance fitness of -0.155 ± 0.066. With MVDYIVEYDYDAVHDDELTIRVGEIIKNVKKLQEEGWLEGELNGRRGMFPDNFVKEIKR [R27K] the abundance fitness was -0.283 ± 0.35. Work on MVDYIVEYDYDAVHDDELTIRVGEIILNVKKLQEEGWLEGELNGRRGMFPDNFVKEIKR [R27L] yielded an abundance fitness of -0.208 ± 0.086. Work on MVDYIVEYDYDAVHDDELTIRVGEIIMNVKKLQEEGWLEGELNGRRGMFPDNFVKEIKR [R27M] yielded an abundance fitness of -0.133 ± 0.18. MVDYIVEYDYDAVHDDELTIRVGEIINNVKKLQEEGWLEGELNGRRGMFPDNFVKEIKR [R27N] showed an abundance fitness of -0.173 ± 0.075. For MVDYIVEYDYDAVHDDELTIRVGEIIQNVKKLQEEGWLEGELNGRRGMFPDNFVKEIKR [R27Q], the abundance fitness was -0.147 ± 0.18. MVDYIVEYDYDAVHDDELTIRVGEIISNVKKLQEEGWLEGELNGRRGMFPDNFVKEIKR [R27S] gave an abundance fitness of -0.064 ± 0.057. With MVDYIVEYDYDAVHDDELTIRVGEIITNVKKLQEEGWLEGELNGRRGMFPDNFVKEIKR [R27T] the abundance fitness was -0.013 ± 0.079. In the case of MVDYIVEYDYDAVHDDELTIRVGEIIVNVKKLQEEGWLEGELNGRRGMFPDNFVKEIKR [R27V], the abundance fitness is reported as -0.096 ± 0.076. Work on MVDYIVEYDYDAVHDDELTIRVGEIIYNVKKLQEEGWLEGELNGRRGMFPDNFVKEIKR [R27Y] yielded an abundance fitness of -0.291 ± 0.075. Work on MVDYIVEYDYDAVHDDELTIRVGEIIRAVKKLQEEGWLEGELNGRRGMFPDNFVKEIKR [N28A] yielded an abundance fitness of -0.387 ± 0.093. For MVDYIVEYDYDAVHDDELTIRVGEIIRCVKKLQEEGWLEGELNGRRGMFPDNFVKEIKR [N28C], the abundance fitness was -0.215 ± 0.13.
